In paper PMC9160799, “PET Imaging of Acidic Tumor Environment With ^89Zr-labeled pHLIP Probes” (Frontiers in Oncology, 2022):
Where “and” joins values, the source holds several entries; their conditions need not be identical. Equal entries are not always repeated. Entries after “also recorded” stand apart in the source; their conditions may differ. Square brackets hold non-standard residues; d marks the D form. Peptide text beside a SMILES is read from it. * marks the point of attachment. X1 = CC(=O)N(O)CCCCCNC(=O)CCC(=O)N(O)CCCCCNC(=O)CCC(=O)N(O)CCCCCNC(=O)CCC(=O)N(O)CCCCCNC(=S)Nc1ccc(NC(=S)*)cc1

Legend:
[1] = Tryptophan fluorescence spectra of pHLIP agents in states I, II, III; type: physicochemical; conditions: for λmax of tryptophan fluorescence, state I: in solution; for λmax of tryptophan fluorescence, state I / λmax of tryptophan fluorescence, state II: pH 8, 25.0°C; for λmax of tryptophan fluorescence, state III / λmax of tryptophan fluorescence, state II: with POPC liposomes; for λmax of tryptophan fluorescence, state III: pH 4, 25.0°C
Procedure: (§1) The interaction of the pHLIP agents with liposomes was investigated by recording the tryptophan fluorescence and circular dichroism (CD) spectra by using a PC1 spectrofluorometer (ISS, Inc) and an MOS-450 spectrometer (Biologic, Inc), respectively, with temperature control set to 25.0°C. Liposomes, consisting of large unilamellar vesicles, were prepared by extrusion. POPC (1-palmitoyl-2-oleoyl-sn-glycero-3-phosphocholine) (Avanti Polar Lipids, Inc.) in chloroform was desolvated on a rotary evaporator and dried under vacuum for several hours. The phospholipid film was rehydrated in 10 mM phosphate buffer, pH 8.0, vortexed, and passed 21 times through the extruder (50 nm membrane).
(§2) Using an excitation wavelength of 295 nm, tryptophan fluorescence spectra were recorded from 310–400 nm. CD spectra were recorded from 190–260 nm with 1-nm steps. The concentration of the peptide and the POPC liposomes varied in different experiments: 5–15 μM of pHLIP agents and 1 mM of POPC liposomes.
The pH-dependent insertion of the peptides into the lipid bilayer of the POPC liposomes was studied by monitoring either the changes in tryptophan fluorescence spectra or changes in the molar ellipticity at 222 nm as a function of the pH value. After the addition of aliquots of HCl, the pH values of the solutions containing peptide and POPC liposomes were measured using an Orion PerHecT ROSS Combination pH Micro Electrode and an Orion Dual Star pH and ISE Benchtop Meter. Fluorescence spectra were analyzed using the Protein Fluorescence and Structural Tool Kit (PFAST) ([41]) to determine the positions of spectral maxima (λ max ). The λ max and millidegree data were normalized to 0–1 and were plotted as a function of pH. The pH-dependence was fit with the Henderson-Hasselbach equation to determine the cooperativity (n) and the mid-point (pK) of transition: […]

[2] = pH-dependent insertion into lipid bilayer of POPC liposomes (Trp fluorescence and CD); type: physicochemical; conditions: with Zr, pH drop 8 to 3, Henderson-Hasselbalch fit
Procedure: as §1, §2
The pH-dependent insertion of the peptides into the lipid bilayer of the POPC liposomes was studied by monitoring either the changes in tryptophan fluorescence spectra or changes in the molar ellipticity at 222 nm as a function of the pH value. After the addition of aliquots of HCl, the pH values of the solutions containing peptide and POPC liposomes were measured using an Orion PerHecT ROSS Combination pH Micro Electrode and an Orion Dual Star pH and ISE Benchtop Meter. Fluorescence spectra were analyzed using the Protein Fluorescence and Structural Tool Kit (PFAST) ([41]) to determine the positions of spectral maxima (λ max ). The λ max and millidegree data were normalized to 0–1 and were plotted as a function of pH. The pH-dependence was fit with the Henderson-Hasselbach equation to determine the cooperativity (n) and the mid-point (pK) of transition:
Normalized pH dependence=1/1+10^n(pH−pK)

RM-1 tumor allografts = experiment: Post-mortem biodistribution, RM-1 tumor model; type: in vivo, male athymic nude mice; conditions: mouse, in vivo, iv, 1.2 nmol, 48 h
Procedure: (§3) The media were provided by the MSK Media Preparation Core. […] Another aliquot was diluted with the medium so that 50 µL contained 1×10^6 cells.
(§4) The imaging and biodistribution studies were performed with male (RM-1 model) and female (4T1 model) athymic nude mice and the kidney-blocking experiments were performed with female SCID mice received from Charles River Laboratories (Stone Ridge, NY). After arrival, the mice were kept in the MSK vivarium for one week before any experimental handling was performed. The animals were allowed free access to water and food, and all animal care and experimental procedures were approved by the Institutional Animal Care and Use Committee (IACUC). For the subcutaneous allografts, a 1-to-1 ratio of Corning Matrigel Matrix and the cell solution was prepared and stored on ice for the injections. Each mouse received a subcutaneous injection of 100 µL (50 µL cell solution, viability > 90%, + 50 µL Matrigel) into the flank on the level of the right shoulder. The injections were performed under anesthesia (2% isoflurane, Baxter Healthcare, Deerfield, IL, USA).
(§5) The mice were intravenously injected (tail vein) with the radiolabeled pHLIP conjugates (1.2 nmol, 7.4 MBq/200 µCi, 100 µL, in sterile filtered PBS). The activity of the syringe prior to injection and after injection was used to determine the percent of injectate administered.
(§6) For the biodistribution studies the tumor-bearing mice were randomized before the injections. Only mice with suitable tumors (150–300 mm^3) were utilized. An exception was made for the 120-hour timepoint, for which only mice with smaller tumors (150 mm^3) were selected. The mice were grouped in cohorts of four. At the respective timepoint, the mice were euthanized (by CO2 asphyxiation, followed by cervical dislocation) and their blood was collected by cardiac puncture as a terminal procedure, followed by quick removal of the tumors. After this, the other organs/samples were collected. […] The exact activities of all samples of one mouse were determined by an Capintec® CRC-55tR dose calibrator. These decay-corrected measurements were used to determine a calibration factor and calibrate all counts to the corresponding activities. Activity concentrations were calculated as percentage injected dose per tissue weight (%ID/g wet tissue). All data was processed and visualized using Origin 8.5.

[3] = Post-mortem biodistribution, RM-1 tumor model; type: in vivo, male athymic nude mice; conditions: male, athymic nude, mouse, in vivo, iv, 1.2 nmol, total radioactivity
Procedure: as §3, §4, §5, §6

[4] = system: kidney uptake of [89Zr]Zr-DFOsqa-Lys-Var3; experiment: Kidney-blocking study (PET imaging); type: in vivo, healthy female SCID mice; conditions: drug IV 30 min before 7.4 MBq [89Zr]Zr-DFOsqa-Lys-Var3 (1.2 nmol); two doses per drug, n=2 each; PET 24 h p.i. vs control mice
Procedure: as §4, with “USA). Palpable tumors of similar size (100–300 mm^3) developed 5–8 days after grafting.” for “USA).”
PET images were obtained at the respective timepoints with the mice under anesthesia (2% isoflurane) on a microPET Focus 120 (Concorde Microsystems) or an Inveon PET-CT (Siemens) rodent scanner. All images were analyzed using the Medical Imaging Data Examiner Amide (version 0.9.0) or the Inveon reconstruction software suite. The counting rates in the reconstructed images were converted to percent of injected dose per weight (%ID/g) by applying a system-specific calibration factor. At the final timepoint, the remaining mice were euthanized (by CO2 asphyxiation, followed by cervical dislocation) and their tumors were resected for histological analysis.
Additional experiments were performed to investigate the influence of various kidney-uptake blockers and diuretics. Healthy female SCID mice received a “blocking agent” 30 minutes prior to the injection of [^89Zr]Zr-DFOsqa-Lys-Var3 (7.4 MBq/200 µCi, 1.2 nmol). […] The experimental set-up can be found in Table S6 .
Table S6. Summary of the kidney-blocking study. Healthy female SCID mice (2 mice per experiment/ dosage + 2 control mice without treatment, total of 22 mice) received a blocking agent intravenously 30 minutes prior to the injection of 7.4 MBq/200 µCi [89Zr]Zr-DFOsqa-Lys-Var3 (1.2 nmol pHLIP).
The drug dose was calculated as weight of drug (mg) per weight of mouse (kg). A potential kidney […]
calibrated images to the control mice (24 hours post injection). No drug led to a significant reduction […]
drug (IV 30 min before dose [mg/kg] effect on kidney mechanism of action [89Zr]Zr-pHLIP) (n=2) uptake […]
and water from the body; acts as a diuretic […]
organic anion transporter; blocks the uptake of organic anions […]
tubule via inhibition of the Na/Cl symporter; acts as a diuretic […]
increased – serum levels decreased

[5] = change of Trp fluorescence maximum

In the case of `CC(=O)N[C@H](C)C(=O)N[C@H](CCCCNC(=S)Nc1ccc(NC(=S)NCCCCCN(O)C(=O)CCC(=O)NCCCCCN(O)C(=O)CCC(=O)NCCCCCN(O)C(=O)CCC(=O)NCCCCCN(O)C(C)=O)cc1)C(=O)N[C@H](CC(=O)O)C(=O)N[C@H](CC(=O)O)C(=O)N[C@H](CCC(N)=O)C(=O)N[C@H](CC(N)=O)C(=O)N1CCC[C@@H]1C(=O)N[C@H](Cc1c[nH]c2ccccc12)C(=O)N[C@H](CCCNC(=N)N)C(=O)N[C@H](C)C(=O)N[C@H](Cc1ccc(O)cc1)C(=O)N[C@H](CC(C)C)C(=O)N[C@H](CC(=O)O)C(=O)N[C@H](CC(C)C)C(=O)N[C@H](CC(C)C)C(=O)N[C@H](Cc1ccccc1)C(=O)N1CCC[C@@H]1C(=O)N[C@@H](C(=O)N[C@H](CC(=O)O)C(=O)N[C@@H](C(=O)N[C@H](CC(C)C)C(=O)N[C@H](CC(C)C)C(=O)N[C@H](CC(C)C)C(=O)N[C@H](CC(=O)O)C(=O)N[C@H](CC(C)C)C(=O)N[C@H](CC(C)C)C(=O)N[C@H](Cc1c[nH]c2ccccc12)C(=O)N[C@H](C)C(=O)O)[C@H](C)O)[C@H](C)O` (89Zr complex, metal not drawn) [DFO*-Lys-Var3] (Ac-[dA][dK](X1)[dD][dD][dQ][dN][dP][dW][dR][dA][dY][dL][dD][dL][dL][dF][dP][dT][dD][dT][dL][dL][dL][dD][dL][dL][dW][dA]-OH; C-terminus assumed), the “λmax of tryptophan fluorescence, state I” value ([1]; with Zr, excitation 295 nm) is reported as 352.0 nm, the “λmax of tryptophan fluorescence, state III” value ([1]; with Zr) is reported as 341.4 nm and the “λmax of tryptophan fluorescence, state II” value ([1]; with Zr) is reported as 348.2 nm. The “λmax of tryptophan fluorescence, state I” value ([1]; without Zr) was 351.9 nm, the “λmax of tryptophan fluorescence, state III” value ([1]; without Zr) was 341.4 nm and the “λmax of tryptophan fluorescence, state II” value ([1]; without Zr) was 349.3 nm. The “cooperativity (n), Fluor.” value [2, 5] was 0.79 and 0.8, the “midpoint of transition (pK), Fluor.” value [2, 5] was 5.87 and the “cooperativity (n), CD” value ([2]; ellipticity at 222 nm (coil-helix transition)) was 1.46. The “midpoint of transition (pK), CD” value ([2]; ellipticity at 222 nm) was 5.47.

`CC(=O)N[C@H](C)C(=O)N[C@H](CCCCNC(=S)Nc1ccc(NC(=S)NCCCCCN(O)C(=O)CCC(=O)NCCCCCN(O)C(=O)CCC(=O)NCCCCCN(O)C(C)=O)cc1)C(=O)N[C@H](CC(=O)O)C(=O)N[C@H](CC(=O)O)C(=O)N[C@H](CCC(N)=O)C(=O)N[C@H](CC(N)=O)C(=O)N1CCC[C@@H]1C(=O)N[C@H](Cc1c[nH]c2ccccc12)C(=O)N[C@H](CCCNC(=N)N)C(=O)N[C@H](C)C(=O)N[C@H](Cc1ccc(O)cc1)C(=O)N[C@H](CC(C)C)C(=O)N[C@H](CC(=O)O)C(=O)N[C@H](CC(C)C)C(=O)N[C@H](CC(C)C)C(=O)N[C@H](Cc1ccccc1)C(=O)N1CCC[C@@H]1C(=O)N[C@@H](C(=O)N[C@H](CC(=O)O)C(=O)N[C@@H](C(=O)N[C@H](CC(C)C)C(=O)N[C@H](CC(C)C)C(=O)N[C@H](CC(C)C)C(=O)N[C@H](CC(=O)O)C(=O)N[C@H](CC(C)C)C(=O)N[C@H](CC(C)C)C(=O)N[C@H](Cc1c[nH]c2ccccc12)C(=O)N[C@H](C)C(=O)O)[C@H](C)O)[C@H](C)O` (89Zr complex, metal not drawn) [DFO-Lys-Var3] showed a Tumor uptake (RM-1 tumor allografts) of 6.9 ± 1.9 %ID/g, a tissue uptake at 48 h ([3]; Blood uptake) of 0.5 ± 0.1 %ID/g and a tissue uptake at 48 h ([3]; Brain uptake) of 0.06 ± 0.01 %ID/g. For the same compound, the tissue uptake at 48 h ([3]; Heart uptake) was 1.3 ± 0.03 %ID/g, the tissue uptake at 48 h ([3]; Kidneys uptake) was 27.9 ± 3.6 %ID/g and the tissue uptake at 48 h ([3]; Liver uptake) was 8.7 ± 0.8 %ID/g. The tissue uptake at 48 h ([3]; Lungs uptake) was 2 ± 0.6 %ID/g, the tissue uptake at 48 h ([3]; Muscle uptake) was 0.5 ± 0.1 %ID/g and the tissue uptake at 48 h ([3]; Pancreas uptake) was 1 ± 0.2 %ID/g. It also gave a tissue uptake at 48 h ([3]; Skin uptake) of 1.7 ± 0.3 %ID/g, a tissue uptake at 48 h ([3]; Spleen uptake) of 7.2 ± 0.7 %ID/g and a tissue uptake at 48 h ([3]; Tibia uptake) of 1.4 ± 0.2 %ID/g.

With `NS(=O)(=O)c1cc(C2(O)NC(=O)c3ccccc32)ccc1Cl` (stereo not drawn) [chlorthalidone] the “effect on kidney uptake” value [4] was “not significant; also recorded: none of these drugs led to a significant reduction of kidney uptake”.

In the case of `CCCN(CCC)S(=O)(=O)c1ccc(C(=O)O)cc1` [probenecid], the “effect on kidney uptake” value [4] is reported as “not significant; also recorded: none of these drugs led to a significant reduction of kidney uptake”.
